Assay results reported in patent publication US20040043420A1, “Method of identifying conformation-sensitive binding peptides and uses thereof” (priority 2003, published 2004).
No end group written: not given here.

Tests used:
ER α [1] = target: T1, ER α (UniProt P03372 1-595, limits assumed); test: phage isolated on ERα on plastic; Tamoxifen
T1 construct: also called estrogen receptor α; ERα-ERE
T1 sequence (looked up): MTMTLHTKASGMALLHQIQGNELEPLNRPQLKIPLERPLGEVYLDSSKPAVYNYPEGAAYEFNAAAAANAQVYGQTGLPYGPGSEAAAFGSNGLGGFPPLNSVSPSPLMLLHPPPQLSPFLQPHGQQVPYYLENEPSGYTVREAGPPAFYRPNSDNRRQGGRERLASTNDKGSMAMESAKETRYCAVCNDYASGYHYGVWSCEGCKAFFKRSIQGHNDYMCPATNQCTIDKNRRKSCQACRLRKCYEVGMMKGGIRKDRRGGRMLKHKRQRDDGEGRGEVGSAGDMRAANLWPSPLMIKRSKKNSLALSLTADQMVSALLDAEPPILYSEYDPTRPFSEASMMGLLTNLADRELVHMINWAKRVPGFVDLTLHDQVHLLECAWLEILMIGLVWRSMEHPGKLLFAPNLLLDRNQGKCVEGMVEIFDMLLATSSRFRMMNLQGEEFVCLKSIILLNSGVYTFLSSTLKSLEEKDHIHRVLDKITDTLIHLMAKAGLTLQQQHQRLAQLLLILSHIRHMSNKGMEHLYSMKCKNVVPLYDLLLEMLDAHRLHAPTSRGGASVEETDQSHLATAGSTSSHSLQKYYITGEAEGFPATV

[2] = target: T2, Gal4 transcriptional activation domain (AD) fused in frame with AR (yeast), P10275; test: cell-based or functional assay
T2 chain: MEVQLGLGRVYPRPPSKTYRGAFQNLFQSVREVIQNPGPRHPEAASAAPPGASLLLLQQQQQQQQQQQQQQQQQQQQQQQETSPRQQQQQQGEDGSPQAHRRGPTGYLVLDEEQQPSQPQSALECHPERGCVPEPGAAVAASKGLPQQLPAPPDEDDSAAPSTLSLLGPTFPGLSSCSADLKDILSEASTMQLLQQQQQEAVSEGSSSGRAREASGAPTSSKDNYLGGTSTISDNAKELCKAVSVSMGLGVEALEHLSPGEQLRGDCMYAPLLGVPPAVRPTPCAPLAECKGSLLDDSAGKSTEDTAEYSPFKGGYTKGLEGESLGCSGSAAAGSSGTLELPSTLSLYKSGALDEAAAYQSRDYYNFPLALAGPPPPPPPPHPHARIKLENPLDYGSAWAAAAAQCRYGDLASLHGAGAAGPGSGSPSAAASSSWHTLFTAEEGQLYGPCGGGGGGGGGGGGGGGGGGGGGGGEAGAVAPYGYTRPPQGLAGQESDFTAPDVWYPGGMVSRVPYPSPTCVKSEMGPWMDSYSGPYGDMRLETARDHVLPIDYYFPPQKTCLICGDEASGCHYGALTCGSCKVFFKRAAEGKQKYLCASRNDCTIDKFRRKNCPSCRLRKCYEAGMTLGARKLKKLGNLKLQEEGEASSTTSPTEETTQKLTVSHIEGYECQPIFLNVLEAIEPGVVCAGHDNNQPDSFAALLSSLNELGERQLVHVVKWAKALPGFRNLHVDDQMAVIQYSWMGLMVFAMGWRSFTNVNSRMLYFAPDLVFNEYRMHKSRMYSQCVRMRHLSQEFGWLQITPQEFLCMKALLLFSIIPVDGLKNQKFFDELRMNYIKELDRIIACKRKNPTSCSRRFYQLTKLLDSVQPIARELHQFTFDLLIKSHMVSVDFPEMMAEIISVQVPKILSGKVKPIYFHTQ

pVP16-AR (HSV), P10275 = target: T3, pVP16-AR (HSV), P10275; test: cell-based or functional assay
T3 chain: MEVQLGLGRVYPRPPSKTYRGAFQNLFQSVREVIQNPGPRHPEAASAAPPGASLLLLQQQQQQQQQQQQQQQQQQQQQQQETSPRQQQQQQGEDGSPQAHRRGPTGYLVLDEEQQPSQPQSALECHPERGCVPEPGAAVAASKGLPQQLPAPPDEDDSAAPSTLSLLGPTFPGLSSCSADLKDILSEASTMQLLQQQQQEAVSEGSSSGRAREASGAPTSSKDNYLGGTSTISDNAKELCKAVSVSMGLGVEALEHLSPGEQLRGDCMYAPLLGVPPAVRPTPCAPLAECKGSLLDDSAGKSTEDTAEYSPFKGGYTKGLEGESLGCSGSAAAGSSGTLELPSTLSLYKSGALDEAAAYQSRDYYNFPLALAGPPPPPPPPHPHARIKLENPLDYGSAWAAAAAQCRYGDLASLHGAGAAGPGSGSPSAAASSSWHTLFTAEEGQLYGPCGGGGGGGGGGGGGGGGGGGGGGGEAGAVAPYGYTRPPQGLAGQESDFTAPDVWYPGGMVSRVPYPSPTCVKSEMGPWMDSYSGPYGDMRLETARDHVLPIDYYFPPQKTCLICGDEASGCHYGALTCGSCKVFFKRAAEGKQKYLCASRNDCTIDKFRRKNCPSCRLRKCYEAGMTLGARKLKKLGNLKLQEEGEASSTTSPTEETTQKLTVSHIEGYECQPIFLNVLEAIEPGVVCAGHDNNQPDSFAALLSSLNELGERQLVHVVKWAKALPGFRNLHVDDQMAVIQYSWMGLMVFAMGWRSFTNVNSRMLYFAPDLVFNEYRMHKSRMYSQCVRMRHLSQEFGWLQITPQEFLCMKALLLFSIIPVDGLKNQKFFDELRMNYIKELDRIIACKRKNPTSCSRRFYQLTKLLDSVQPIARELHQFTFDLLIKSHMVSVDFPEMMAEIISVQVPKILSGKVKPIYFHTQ

ER α [3] = target: T1, ER α; test: phage isolated on ERα-ERE; Estradiol
[4] = target: T4, estrogen receptor (ER) α as a carboxy-terminal fusion to the Gal4-activation domain (yeast, UniProt P03372 1-595, limits assumed); test: cell-based or functional assay; note: test concentration or dose not given here
T4 sequence (looked up): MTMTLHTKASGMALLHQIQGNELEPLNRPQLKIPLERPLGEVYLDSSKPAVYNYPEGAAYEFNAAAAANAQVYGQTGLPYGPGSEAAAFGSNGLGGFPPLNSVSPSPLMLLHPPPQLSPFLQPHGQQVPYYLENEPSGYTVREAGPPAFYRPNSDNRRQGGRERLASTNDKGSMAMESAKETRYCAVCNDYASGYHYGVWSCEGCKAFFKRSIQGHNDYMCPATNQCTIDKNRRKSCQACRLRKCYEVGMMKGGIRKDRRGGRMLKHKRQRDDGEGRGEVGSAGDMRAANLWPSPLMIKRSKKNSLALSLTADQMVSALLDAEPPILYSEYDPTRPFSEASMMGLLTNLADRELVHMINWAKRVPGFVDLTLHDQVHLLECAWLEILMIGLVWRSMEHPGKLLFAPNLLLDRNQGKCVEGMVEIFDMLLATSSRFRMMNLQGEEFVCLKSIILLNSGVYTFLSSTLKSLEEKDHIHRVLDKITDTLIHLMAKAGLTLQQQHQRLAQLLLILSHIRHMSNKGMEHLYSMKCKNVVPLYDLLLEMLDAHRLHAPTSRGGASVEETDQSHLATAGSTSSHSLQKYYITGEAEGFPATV

SSSATSIKVQYQISR [15PT]: binds (ER α [1]).

SSKYVFGFQVAGGSR [7PT]: binds (ER α [1]).

SSGRYDPFVLNAASR [11PT]: binds (ER α [1]).

SSWHSRWDLALGFSR [17PT]: binds (ER α [1]).

B1: B5G11, P04386 1-147 (peptide)
chain: MKLLSSIEQACDICRLKKLKCSKEKPKCAKCLKNNWECRYSPKTKRSPLTRAHLTEVESRLERLEQLFLLIFPREDLDMILKMDSLQDIKALLTGLFVQDNVNKDAVTDRLASVETDMPLTLRQHRISATSSSEESSNKGQRQLTVSEFRSSVFEQMYLCTGGSLDLQPS
modifications: not checked
With B1 the Fold induction (yeast two-hybrid) [2] was 6 fold, the β-galactosidase activity (yeast two-hybrid), CPA [2] was 0.973 and the β-galactosidase activity (yeast two-hybrid), DHT [2] was 3.96. For the same binder, the β-galactosidase activity (yeast two-hybrid), No Lig [2] was 0.638, the β-galactosidase activity (yeast two-hybrid), RU [2] was 0.9 and the luciferase (mammalian two-hybrid, Huh-7), CYP. (Relative Light Units) (pVP16-AR (HSV), P10275) was 4.46. It also gave a luciferase (mammalian two-hybrid, Huh-7), DHT (Relative Light Units) (pVP16-AR (HSV), P10275) of 15.8, a luciferase (mammalian two-hybrid, Huh-7), MPA (Relative Light Units) (pVP16-AR (HSV), P10275) of 8.03 and a luciferase (mammalian two-hybrid, Huh-7), RU486 (Relative Light Units) (pVP16-AR (HSV), P10275) of 0.105. It also gave a luciferase (mammalian two-hybrid, Huh-7), no compound (Relative Light Units) (pVP16-AR (HSV), P10275) of 0.0503.

SSLRCYLSSSKVDQWACSR (not fully specified; cysteine pairing not given here) [17E]: binds (ER α [3]).

SSGWIEQKLRGSFSR [14PT]: binds (ER α [1]).

HSHSPLLMALLAPPGG [15E]: binds (ER α [3]).

B2: B8E9, P04386 1-147 (peptide)
chain: MKLLSSIEQACDICRLKKLKCSKEKPKCAKCLKNNWECRYSPKTKRSPLTRAHLTEVESRLERLEQLFLLIFPREDLDMILKMDSLQDIKALLTGLFVQDNVNKDAVTDRLASVETDMPLTLRQHRISATSSSEESSNKGQRQLTVSEFQQCMCAEVKSWLGGSLDLQPS
modifications: not checked
In the case of B2, the Fold induction (yeast two-hybrid) [2] is reported as 4 fold, the β-galactosidase activity (yeast two-hybrid), CPA [2] is reported as 0.563 and the β-galactosidase activity (yeast two-hybrid), DHT [2] is reported as 1.75. For the same binder, the β-galactosidase activity (yeast two-hybrid), No Lig [2] was 0.499, the β-galactosidase activity (yeast two-hybrid), RU [2] was 0.8 and the luciferase (mammalian two-hybrid, Huh-7), CYP. (Relative Light Units) (pVP16-AR (HSV), P10275) was 16. The luciferase (mammalian two-hybrid, Huh-7), DHT (Relative Light Units) (pVP16-AR (HSV), P10275) was 19.6, the luciferase (mammalian two-hybrid, Huh-7), MPA (Relative Light Units) (pVP16-AR (HSV), P10275) was 18.5 and the luciferase (mammalian two-hybrid, Huh-7), RU486 (Relative Light Units) (pVP16-AR (HSV), P10275) was 10.2. It also gave a luciferase (mammalian two-hybrid, Huh-7), no compound (Relative Light Units) (pVP16-AR (HSV), P10275) of 0.209.

B3: B8H3, P04386 1-147 (peptide)
chain: MKLLSSIEQACDICRLKKLKCSKEKPKCAKCLKNNWECRYSPKTKRSPLTRAHLTEVESRLERLEQLFLLIFPREDLDMILKMDSLQDIKALLTGLFVQDNVNKDAVTDRLASVETDMPLTLRQHRISATSSSEESSNKGQRQLTVSEFHSRLRVEVVSWGIGSTCSQANSGRISYDL
modifications: not checked
Binder B3 has a Fold induction (yeast two-hybrid) [2] of 22 fold, a β-galactosidase activity (yeast two-hybrid), CPA [2] of 0.393 and a β-galactosidase activity (yeast two-hybrid), DHT [2] of 3.81. For the same binder, the β-galactosidase activity (yeast two-hybrid), No Lig [2] was 0.174, the β-galactosidase activity (yeast two-hybrid), RU [2] was 0 and the luciferase (mammalian two-hybrid, Huh-7), CYP. (Relative Light Units) (pVP16-AR (HSV), P10275) was 10.5. It also gave a luciferase (mammalian two-hybrid, Huh-7), DHT (Relative Light Units) (pVP16-AR (HSV), P10275) of 11.6, a luciferase (mammalian two-hybrid, Huh-7), MPA (Relative Light Units) (pVP16-AR (HSV), P10275) of 11.3 and a luciferase (mammalian two-hybrid, Huh-7), RU486 (Relative Light Units) (pVP16-AR (HSV), P10275) of 3.88. The luciferase (mammalian two-hybrid, Huh-7), no compound (Relative Light Units) (pVP16-AR (HSV), P10275) was 0.132.

SRLEELLLMDFWRSR [5E]: binds (ER α [3]).

SRDNCGAGLWAGCSR [19PT]: binds (ER α [1]).

SSGYWGGWDYGAGSR [18PT]: binds (ER α [1]).

SSYKPHSLLEWHLLGGTSR [18E]: binds (ER α [3]).

SSSPWWSFNLRDMSR [12PT]: binds (ER α [1]).

B4: B6F3 (peptide)
chain: MKLLSSIEQACDICRLKKLKCSKEKPKCAKCLKNNWECRYSPKTKRSPLTRAHLTEVESRLERLEQLFLLIFPREDLDMILKMDSLQDIKALLTGLFVQDNVNKDAVTDRLASVETDMPLTLRQHRISATSSSEESSNKGQRQLTVSEFFRATHLLRLLRTDSALDLQPS
B4 was tested, and the “Fold Induction (ligand-induced β-galactosidase, two-hybrid)” value [4] was 3 fold.

B5: B2G1 (peptide)
chain: MKLLSSIEQACDICRLKKLKCSKEKPKCAKCLKNNWECRYSPKTKRSPLTRAHLTEVESRLERLEQLFLLIFPREDLDMILKMDSLQDIKALLTGLFVQDNVNKDAVTDRLASVETDMPLTLRQHRISATSSSEESSNKGQRQLTVSEFFRLRRLDRLLQDSFLLDLQPS
In the case of B5, the “Fold Induction (ligand-induced β-galactosidase, two-hybrid)” value [4] is reported as 12 fold.

B6: B4F6 (peptide)
chain: MKLLSSIEQACDICRLKKLKCSKEKPKCAKCLKNNWECRYSPKTKRSPLTRAHLTEVESRLERLEQLFLLIFPREDLDMILKMDSLQDIKALLTGLFVQDNVNKDAVTDRLASVETDMPLTLRQHRISATSSSEESSNKGQRQLTVSEFSGVPILHMLLMLPSSLDLQPS
For B6, the “Fold Induction (ligand-induced β-galactosidase, two-hybrid)” value [4] was 5 fold.

SSYLTLGKSMMAISR [16PT]: binds (ER α [1]).

SSRLLACELMYEDADVCSR [8E]: binds (ER α [3]).

SSWPYLPKREEWASR [13PT]: binds (ER α [1]).

SSRMGHVWYDWTFSR [5PT]: binds (ER α [1]).

SRDTGDMWWGRGGSR [10PT]: binds (ER α [1]).

SRSLLMDMLMSDDYVTVSR [7E]: binds (ER α [3]).

SSSWSYGKPTFLSSR [9PT]: binds (ER α [1]).

SSKLWQLLSSPIDSR [6E]: binds (ER α [3]).

SSWAGIKFGKPPHSR [8PT]: binds (ER α [1]).

SSCLREILLYGACSR (not fully specified; cysteine pairing not given here) [13E]: binds (ER α [3]).

SSRLLGDFGGSVVSR [6PT]: binds (ER α [1]).

SRLVALLKSPWSVSR [4E]: binds (ER α [3]).

SRLEYYLRLGTYESR [10E]: binds (ER α [3]).
